Experiments:
[1] = target: Bcl-2 (mouse; recombinant, and endogenous in mouse heart) (UniProt P10417); assay: GST pull-down after kinase reaction; settings: sites T108
[2] = target: Bcl-xL (recombinant) (UniProt Q07817); assay: GST pull-down after kinase reaction; settings: reference: GST-Beclin1-WT without Mst1; sites T108

Substance | binding against the reference ([1]; reference: GST-Beclin1-WT without Mst1) | binding against the reference [2] | binding against the reference ([1]; reference: GST-Beclin1-N2 without Mst1)
Beclin1 (recombinant GST-Beclin1; adenoviral Beclin1 constructs) (from UniProt Q14457) GST-Beclin1-WT treated with Mst1 and ATP | stronger | stronger | 
Beclin1 (recombinant GST-Beclin1; adenoviral Beclin1 constructs) Beclin1-N2, 72-163 (from UniProt Q14457) GST-Beclin1-N2 treated with Mst1 and ATP |  |  | stronger
